Drawing on patent US20260042827A1 (published 2026), this text covers IC50 for one molecule.

In one assay the target is T1, HLA-DP4 (human, UniProt P20036 29-222; P04440 30-225).
T1 chain 1: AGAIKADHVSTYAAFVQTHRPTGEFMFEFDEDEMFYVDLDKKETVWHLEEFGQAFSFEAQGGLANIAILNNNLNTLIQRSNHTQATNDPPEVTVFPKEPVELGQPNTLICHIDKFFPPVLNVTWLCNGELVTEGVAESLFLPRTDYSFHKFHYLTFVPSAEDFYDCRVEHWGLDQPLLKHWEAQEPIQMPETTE
T1 chain 2: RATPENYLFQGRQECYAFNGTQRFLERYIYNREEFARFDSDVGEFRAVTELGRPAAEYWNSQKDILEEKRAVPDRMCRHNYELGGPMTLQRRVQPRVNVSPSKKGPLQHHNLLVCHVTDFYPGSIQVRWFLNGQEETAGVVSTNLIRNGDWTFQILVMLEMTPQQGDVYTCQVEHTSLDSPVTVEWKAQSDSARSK
Nature of the assay: competition.

In a further assay the target is T2, HLA-DP2 (human, UniProt P20036 29-222; P04440 30-225).
T2 chain 1: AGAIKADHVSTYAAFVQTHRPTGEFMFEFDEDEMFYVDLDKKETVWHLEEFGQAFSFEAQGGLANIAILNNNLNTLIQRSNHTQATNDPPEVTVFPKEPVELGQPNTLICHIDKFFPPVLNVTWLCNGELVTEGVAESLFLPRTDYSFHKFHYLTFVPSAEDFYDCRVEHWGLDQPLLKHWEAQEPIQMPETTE
T2 chain 2: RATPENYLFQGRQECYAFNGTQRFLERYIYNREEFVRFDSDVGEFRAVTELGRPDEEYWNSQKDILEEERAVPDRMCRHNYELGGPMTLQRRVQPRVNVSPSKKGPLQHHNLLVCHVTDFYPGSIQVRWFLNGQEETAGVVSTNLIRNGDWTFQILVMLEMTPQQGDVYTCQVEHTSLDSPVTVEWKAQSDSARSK
Description: competition.

Consider PGCNKRYFKLSHLQMHSRKHT [WT1328-348], for which the IC50 in the assay with HLA-DP4 was determined as 23.8 µM; with HLA-DP2 it was 8 µM.
